The record followed here is the nanobody polyreactivity screen of Harvey et al. (2022).

The nature of this series: yeast display, Sf9 membrane polyspecificity reagent, FACS + sequencing; frameworks hold sequencing errors. Put shortly:
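Galactose-induced (36–48 hours) yeast carrying a synthetic nanobody display library were exposed to 10% biotinylated, detergent-solubilized Sf9 membrane reagent at 4 °C for 1 hour. FACS followed streptavidin microbead enrichment, using low and high (top ~1%) gates for expression (anti-HA) and reagent binding (streptavidin). Colony PCR, MiSeq 2 × 250 sequencing and CDR-length filtering followed. Labels for polyreactivity reflect the gate of origin.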
For “QFQLVESGGGLVQAGGSLRLSCAASGSTFGSYAMGWYRQAPAKESELVAAITASGGSTNYADSVKGRFTISRDNAKNTVYLQMNSLKPEDTAVYYCAADTTYSPLSIEYDYWGQGTQVTVSS”, the “polyreactivity (PSR sort gate)” value is “low polyreactivity”. For “QFQLVESGGGLVQAGGSLRLSCAASGSTFVPNTMGWYRQAPGIERELVAAITYSGGSTYYADSVKGRFTISRDNAKNTVYLQMHSLKPEDTAVYYCAAEGTTWYYDMDYWGQGTQVTVSS”, the “polyreactivity (PSR sort gate)” value is “low polyreactivity”. In the case of “QFQLVESGGGLVQAGGSLRLSCAASGSTIPRNAMGWYRQAPGKERELVAVITGSGGSTYYADSVKGRFTISRDNAKNTVYLQMNSLKPEDTAVYYCAAKYRFYGFDYWGQGTQLTVSS” it was “high polyreactivity”; in that of “QFQLVESGGGLVQAGGSLRLSCAASGSTLAPYVMGWYRQAPGKDRELVAVISTRTGRPYYADSVKGRFTISRDNAKNTVYLQMNSLKPEDTGVYYCAARKKTTYRDWGRHDYWGQGTQVTVSS”, “high polyreactivity”. For the sequence “QFQLVESGGGLVQAGGSLRLSCAASGYTFGNYAMGWYRPAPGNVRVLVAGISWSGGSTYYADSVKGRFTISRDNAKNTVYLQMNSLKPEDTAVYYCATRVQGYHNGWYAYLGQGTQVTVSS”, the “polyreactivity (PSR sort gate)” value is listed as “high polyreactivity”. In the case of “QFQLVESGGGLVQAGGSLRLSCAASGYTFGQYDMGWYRQAPGKERELVAAISTGGVSTYYADSVKGRFTISRDNAKNTVYLQMNSLKPEDTAVYYCATTPYVRYDYWGQGTQVTVSS” it was “low polyreactivity”; in that of “QFQLVESGGGLVQAGGSLRLSCASSGSIFWYYAMGWYRQAPGKERELVATITSGGRTDYADSVKGRFTISRDNAKNTVYLQMNSLKPEDTAVYFCAAGPRWRPRSYDYWGHGTQVTVSS”, “high polyreactivity”; in that of “QFQLVESGGGLVQAGGSLRLSCASSGSIFYGNAMVCYRQAPGKERELVADIRWSGGSTYYADSVKGRFTISRDNAKNTVYLQMNSLKPEDTAVYYCAVRSPYRWRYASRYHEYDYWGQGTQVTVSS”, “low polyreactivity”. Consider “QFQLVESGGGLVQAGVSLRLSCAASGSIILVYAMGLYIQATGKETELVPAITTRGSSTYYADSVKGRFKISRDNAKNTYYLQMNSLKPEDTEVYYCAKEFPGTQGRGVTGFSGTALGYWGQGTKVTVSS”, for which the “polyreactivity (PSR sort gate)” value is given as “low polyreactivity”.

For the sequence “QFQLVESGGGLVQARGSLRLSCAASGITFKEYAMGWYRQAPGTERELVAAISKSGGSTYYADSVKGRFTISRDNAKNTVYLQMTSLKPEDTAVYYCAADYAEYEYGDYYWGQGTQVTVSS”, the “polyreactivity (PSR sort gate)” value was “low polyreactivity”. For the sequence “QFQLVESGGGLVQEGGSLRLSCAASGRTLAKNAMGWYRQAPGKEREFVAAISRRGGSTYYADSVKGRFTISRDYAKYTVYLQLNSLKREDTAVYYCARASRQGYYQLSYDEFDYWGQGTQVTVSS”, the “polyreactivity (PSR sort gate)” value is “high polyreactivity”.

Regarding “QFQLVESGGRLVQAGGSLRLSCAASGFIFWYNAMGWYRQAPGKEREFVAAISSGGSTTYADSVKGRFTISRDNAKNTVYLQMNSLKPEDTAVSYCAAGSYDYDYWGQGTQVTVSS”, the “polyreactivity (PSR sort gate)” value is recorded as “low polyreactivity”. In the case of “QFQLVESGRGLVQAGGGLRLSCAASGLTFGYYTMGWYRQAPGKERELVAAINYSGGSTYYADSVKGRFTISRDNAKNTVYLQMNCLKPEDSAVYYCAAEGPVYTTYEYWGQGNQVTVSS” it was “low polyreactivity”. Regarding “QFQLVESGRGLVQAGGSLRLSCAASGNTFGPYAMGWYRQAPGKERELVAAISSGGSTNYADSVKGRFTISRDNAKNTVYLQMNSLKPEDTAVYYCAAPYRSYVRYKYDYWGQGTLVTVSS”, the “polyreactivity (PSR sort gate)” value is “low polyreactivity”. In the case of “QFQLVESGRGLVQAGGSLRLSCAASGSIFYSYAMGRYRQAPGKEREFVATISDSSGSTYYADSVKGRFTISRDNAKNTVYLQMNSMIPEDTAVYYCATTDSYGYYGYGDWGQGTQVTVSS”, the “polyreactivity (PSR sort gate)” value is “low polyreactivity”.

Regarding “QFQLVESRGGLVQAGGSLRLSCAASGFIFTHYAMGWYRQAPGKERELVAAITRRGGDTHYADSVKGRFTISRDNPKNTVYLQMNSLKPEDTAVYYSNAKRYSWGYYPAFDYWGHGTQVTVSS”, the “polyreactivity (PSR sort gate)” value is reported as “high polyreactivity”.

Consider “QFQLVESVGGLVQAGGILRLSCAASGRNYNSYAMGWYRKAPGKERELVAAISRTGASTYYSDSVKGRFTISRDNAKNTVYLQMNSLKPEDTAVYYCAADANSGDGYYWGQGTQVTVSS”, for which the “polyreactivity (PSR sort gate)” value is reported as “high polyreactivity”. For the sequence “QFQLVQSGGGLVQAGGSLRLSCAASGFILEPNAVGWYRQAPGKERELVATISYSGGGTYYADSVKGRFTISRDNAKNTVYLQLNCLKPEDTAVYYCAVDWYYYVWWYDYWGQGTHVTVSS”, the “polyreactivity (PSR sort gate)” value is on record as “high polyreactivity”. With “QFQPVESGGGLVQAGGSLRLSCAASGFTFYRYAMGWYRPAHGKERELVAAITFSGSSTYYADSVKGRFTISRDNAKNTVYLQMNSLKEEDTAVYYCAAGGSFWYFSPRYGYWGQGTQVTVSS” the entry was “high polyreactivity”.

“QGHLVESGGGLVHAGGSLRLSCAASGRIFDVNAMGWYRQAPWKERELVAAISSGGNTKYADSVKGRFTISRDNAKNTVYLQMNSLKPEDTAVYYCIADGKAGGDYDYWGQGTQVTVSS”: the “polyreactivity (PSR sort gate)” value is recorded as “low polyreactivity”. For “QGQHVDSGGVLVQAGGSLRLSCAASGITVYLYAMGWYRPAPGKEREMVATISRSGGSTYADSVKGRFTISRDNAKNTVYLQMYSLKPEDSAVYYCNADVLSTGYIAYDYWGQGTQVTVSS”, the “polyreactivity (PSR sort gate)” value is “low polyreactivity”. Regarding “QGQLEESGGGLVQAGGSLRLSCAASGFIFGGNDMGWYRQAPGKERELVAAISKSGGRTYYADSVKGRFTISRDNAKNTVYLQMNSLKPEDTAVYYCAAVPGRTAEDYGEDYWGQGTQVTVSS”, the “polyreactivity (PSR sort gate)” value is on record as “high polyreactivity”. In the case of “QGQLEESGGGLVQAGGSLRLSCAAYGRIFYEYAMGLYRQAPGKERELVAISTAGCNTYYADSVKGRFTISRDNGKNTDYLQMNILKPEDTAVYYCAARLQYYPYYYWGQGTQVTVSS”, the “polyreactivity (PSR sort gate)” value is “high polyreactivity”.

Turning to “QGQLGESGGGLVQAGGSLRLSCAASGRIFNCYGMGWYRQAPGKERELVATISKSSDITYYADSVKGRFTISRDIAKNNVYLQMNSLRPEDTAVYYCAAKVRQWRQGSYSSQYDYWGQGTQVTVSS”, the “polyreactivity (PSR sort gate)” value is on record as “high polyreactivity”. In the case of “QGQLGESGGGLVQAGGSLRLSCAASGSIFPEYDMGWYRQAPGNERELDAAISWSGGSTYYADSVKGRFTISRANAKNTVSLQRNSLKPVDTAVYYCNRVPSWRIDYDYWGQGTQVSVSS” it was “low polyreactivity”. As to “QGQLVESGAGLVQAGGSLRLSCAASGITLHGYVMGWYRQAPGKETELVAAITSSGGRTYYADSVKGRFTISRDNAKNTVYLQMNRLKPVDTAVYYCAARIYYYAFSGYYWGQGTQVTVSS”, the “polyreactivity (PSR sort gate)” value was “high polyreactivity”. With “QGQLVESGGGLGQAGGTLRLSCAASGFTFSFYAMGWYRQAPGKERELVAAISWSGGSTYYADSVKGRFTISRDNAKNTVYLQMNSLKPEDTAVYYCAAKLLYVGRYGYWGHGTQVTVSS” the entry was “high polyreactivity”.

Turning to “QGQLVESGGGLLQAGGSLSLSCAATGFTFTENAMGWYRQEPGKEREFVAYISSSGDSTYYSDSVKGRFTISRDNAKNTVYLQMNSLKPEDTAVYYCYRDLVYDYYYVPQPSRFDYWGQGTQVTLSS”, the “polyreactivity (PSR sort gate)” value is on record as “high polyreactivity”. In the case of “QGQLVESGGGLVQAGGSLLLICAASGGTFLTYAMGWYRQAPGKERELVAAITSGGSTKYADSVKGRFTISRDNAKNTVYLQMNSLKPEDTAVYYCAADSVRDYVLWWAYSRSDYWGQGTQVTVSS” it was “low polyreactivity”; in that of “QGQLVESGGGLVQAGGSLRLKCAASVFTFQFYDMGWYRQAPGKEMEFVATITWRAGSTYYADSVKGRFTISRDNAKNTVYLQMNSLKPEDTAVYYCIADYYRHSLDYDYVGYDYWGQGTQVTVSS”, “low polyreactivity”.

Consider “QGQLVESGGGLVQAGGSLRLSCAASGFTFAPNAMAWYRQAPGKERELVAAISSASSTYYADSLKGRFTISRDNAKNTVYLQMNSLKPEDTAVYYCAAREGWGFYYWGQGTQVTVSS”, for which the “polyreactivity (PSR sort gate)” value is “high polyreactivity”. Take “QGQLVESGGGLVQAGGSLRLSCAASGFTFDYYAMGWYRQATGKEREFVAAISSRGDDTYYADSVKGRFTISRDNAKNTVYLQMNSLKPEDTAVYYCAALDPWKPEYDYWGQGTQVTLSS”: the “polyreactivity (PSR sort gate)” value is reported as “high polyreactivity”. As to “QGQLVESGGGLVQAGGSLRLSCAASGFTFNYYAMGWSRQAPGKERELVAAISWRGGSTSYADSVKGRFTISRDNAKNTVYLQMNSLKPEDTAVYYCNAGYSGIYYFAGDYWGQGTQVTVSS”, the “polyreactivity (PSR sort gate)” value was “high polyreactivity”. In the case of “QGQLVESGGGLVQAGGSLRLSCAASGFTFQYYAMGWYRQAPGKDRELVAALSSSGGRTFYADSVKGRFTISRDNAKNTVYLQMNSLKAEDTAVYYCAAVWYGFLYYYWGQGTQVTVSS” it was “high polyreactivity”. With “QGQLVESGGGLVQAGGSLRLSCAASGFTFSYNVMGWYRQAPGKERELVPAINWSGGRTYYADSVKGRFTISRDNAKNTVYLQMNSLKPEDTAVYYCAARVYRGTARLIYDYWGQGTQVTVSS” the entry was “high polyreactivity”; with “QGQLVESGGGLVQAGGSLRLSCAASGFTFYYNAMGWYRQAPGQERELVAAISTRGGNTYYADSVKGRFTISRDNAKNTVYLQMNSLKPEDTAVYYCARKIRREGRYDYWGQGTQVTVSS”, “high polyreactivity”. As for “QGQLVESGGGLVQAGGSLRLSCAASGGTFEYNTMGWYRQAPGKERELVAAIRSSTVRTYYADSVKGRFTISRDNAKNTVYLQMNSLKPEDTAVYYCAATRYRKYWGQGTQVTVTS”, the “polyreactivity (PSR sort gate)” value was “high polyreactivity”. In the case of “QGQLVESGGGLVQAGGSLRLSCAASGIIFTANVMGWYRQAPGKERELVAAITRGGNTYYADSVKGRFTISRDNAKNTVYLQMNSLKPEDTAVYYCAAADYTTPVPYGRKGFDYWGQGTQVTVSS”, the “polyreactivity (PSR sort gate)” value is “low polyreactivity”. Regarding “QGQLVESGGGLVQAGGSLRLSCAASGLIFYPNGMGWYREAPGKERELVAAITYSDGSTYYADSVKGRFTISRDNAKNTVYLQMNSLKAEDTAVYYCNRVTRWTYNYWGQGTQVTVSS”, the “polyreactivity (PSR sort gate)” value is listed as “high polyreactivity”.

Consider “QGQLVESGGGLVQAGGSLRLSCAASGLTFKYYTMGWYRQAPGKEMELVAAINWSGASTYADSVKGRFTISRDNAKNTVYLQMNSLKPEDTAVYYCAADSPSWAPVREYDFWGQGTQVTVSS”, for which the “polyreactivity (PSR sort gate)” value is “low polyreactivity”. With “QGQLVESGGGLVQAGGSLRLSCAASGNTFWYYAMGWYRQAPGKEREVVATISSSGGSTSYAHSVKGRFTISRDNAKNTVYLQMNSLKPVDTAVYYCAKPIRYFAAYPLTKGYYYWGQCTQVTVSS” the entry was “high polyreactivity”.
